In patent US20260218135A1 (REGENTS OF THE UNIVERSITY OF COLORADO A BODY CORPORATE, published 2026):

B1: N-terminal fragment of HA-PEG10 (22 kDa self-cleavage product, N-terminal ~100 amino acids) (other, Homo sapiens, UniProt Q86TG7 1-111, looked up)
chain: MTERRRDELSEEINNLREKVMKQSEENNNLQSQVQKLTEENTTLREQVEPTPEDEDDDIELRGAAAAAAPPPPIEEECPEDLPEKFDGNPDMLAPFMAQCQIFMEKSTRDF
notes: A band on the blot; The construct that mimics it (AA1-111) is m6; also called NTF; shorter proteolytically cleaved N-terminal fragment; not shown: 2x HA tag (N-terminal) of the parent HA-PEG10 construct
B2: HA-N-terminal fragment construct (2x HA-tagged human PEG10, AA1-111) (other, Homo sapiens, UniProt Q86TG7 1-111, looked up)
chain: MTERRRDELSEEINNLREKVMKQSEENNNLQSQVQKLTEENTTLREQVEPTPEDEDDDIELRGAAAAAAPPPPIEEECPEDLPEKFDGNPDMLAPFMAQCQIFMEKSTRDF
notes: range 1-111; Truncation construct that mimics the natural self-cleavage of PEG10; also called HA-NTF; not shown: 2x HA tag (N-terminal)
B3: HA-capsid^CTD (human PEG10, AA161-259, 1x HA C-terminal) (other, Homo sapiens, UniProt Q86TG7 161-259, looked up)
chain: PQRREVAKRKIRRLRQGMGSVIDYSNAFQMIAQDLDWNEPALIDQYHEGLSDHIQEELSHLEVAKSLSALIGQCIHIERRLARAAAARKPRSPPRALVL
notes: range 161-259; not shown: 1x HA tag (C-terminal)

Experiments:
[1] = biological target: HA-PEG10 gag-pol (2x HA-tagged human PEG10, AA1-708) (Homo sapiens) (UniProt Q86TG7); test: cell-based or functional assay
[2] = biological target: T1, FLAG-HsRTL8c-3'UTR (3x FLAG-tagged human RTL8c, AA1-113) (Homo sapiens, UniProt A6ZKI3 1-113); test: crosslinking co-immunoprecipitation, IP-FLAG, HEK293 lysate, western blot
T1 construct: range 1-113; Expressed in HEK293 cells from pcDNA3.1; also called FLAG-RTL8c; human FLAG-RTL8; not shown: 3x FLAG tag (N-terminal)
T1 sequence (A6ZKI3 whole entry, the tested form may be a part): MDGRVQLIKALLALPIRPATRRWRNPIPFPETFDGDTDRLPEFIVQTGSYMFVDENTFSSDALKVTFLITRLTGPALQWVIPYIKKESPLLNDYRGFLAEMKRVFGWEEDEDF
Text: HA-PEG10 was visible as four distinct bands representing gag-pol, gag, and two self-cleavage products generated via activity of the PEG10 protease domain^{16,36,37}. The 37 kDa band represents a retrovirus-like capsid fragment, and the 22 kDa band reflects a protein fragment consisting of the N-terminal ~100 amino acids of the protein (referred to as the ‘N-terminal fragment’, or ‘NTF’) 16. Upon immunoprecipitation of HA-PEG10, Applicants observed co-immunoprecipitation of FLAG-RTL8c (FIG. 3a).
Beads were first crosslinked to antibodies. Primary antibodies (5 μg) or isotype controls (5 μL) were incubated with 40 μL protein A (Invitrogen) or protein G (Pierce) bead slurry for 30 min to couple antibodies to beads. After coupling, beads were collected by centrifugation and the supernatant discarded. Unless otherwise stated, all incubations and washes were performed with end-over-end rotation at room temperature. All centrifugation to collect beads was performed 2,500×g for 2 min. Beads were washed twice (1 mL 0.2M sodium borate, pH 9 for 1 min), resuspended in 400 μL 20 mM dimethyl pimelimidate (DMP, Thermo) and incubated for 30 min to crosslink antibodies. After crosslinking, beads were washed twice (1 mL 0.2M ethanolamine (EMD Millipore) pH 8 for 5 min) and incubated in 1.4 mL 0.2M ethanolamine for two hr. Beads were then washed twice (1 mL PBS for 5 min). […]

[3] = biological target: T1, FLAG-HsRTL8c-3'UTR (3x FLAG-tagged …); test: co-immunoprecipitation with FLAG-RTL8c, western blot (FIG. S6b)

| Molecule | binding result [2] | other results |
| --- | --- | --- |
| HA-HsRTL8c-3'UTR (2x HA-tagged human RTL8c, AA1-113) (from UniProt A6ZKI3 1-113) | – | abundance of HA-RTL8c relative to HA-PEG10 in the VLP fraction (western blot) [1]: 5% |
| B1 | no binding | – |
| B2 | – | binding result [3]: no binding |
| B3 | no binding | – |
